The target of this data set is WT capsid protein (RRV CP) (Ross River virus, UniProt P08491 1-270). The experiment in a line: EMSA (native agarose gel shift, co-migration of protein and DNA); 3 uM CP, 3 uM DNA, 150 mM NaCl; CLP assembly. The note with it: protein: recombinant; tags: 6xHis (N-terminal). (In general: A gel shift assay detects complexes by their altered migration in electrophoresis.)
Sequence of WT capsid protein (RRV CP) (P08491 1-270): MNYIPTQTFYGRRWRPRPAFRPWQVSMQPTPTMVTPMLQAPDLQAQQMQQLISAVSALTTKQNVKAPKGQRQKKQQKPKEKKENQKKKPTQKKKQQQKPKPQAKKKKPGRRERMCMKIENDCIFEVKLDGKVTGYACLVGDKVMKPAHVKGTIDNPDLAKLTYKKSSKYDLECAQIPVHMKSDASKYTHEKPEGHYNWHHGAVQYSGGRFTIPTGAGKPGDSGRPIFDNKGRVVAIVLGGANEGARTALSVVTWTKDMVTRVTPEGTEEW

GTTGACGTCACAGATGAGATATAAAGCATAAGGGACATGTTCAAACGG (ssDNA) [48-mer linear ssDNA oligomer (DNA cargo)]: the binding result is given as “binds”.
